Measured values taken from patent publication US20190112365A1 (EISAI R AND D MANAGEMENT, published 2019).

Target: T1, Human Tau 2N4R, wild type, recombinant full length (human, UniProt P10636 2-758)
T1 construct: Full length 2N4R isoform; monomer in SPR and ELISA; heparin-induced aggregates or seeds in the functional assays; also called Tau441; Tau-441
Test: SPR BIAcore, mAb captured by anti-human IgG, Tau flowed, 1:1 Langmuir
Method: All experiments were performed using a BIAcore™ T-100 instrument (GE Healthcare). 10 μL anti-human IgG (monoclonal mouse anti-human Fc) from human antibody capture kit (GE Healthcare) was diluted to 25 μL/mL in 200 μL final immobilization buffer (10 mM sodium acetate, pH 5.0). The flow rate was set to 5 μL/min, flowpath 1. Fifty μL N-hydroxysuccinamide (NETS) and 50 μL 1-ethyl-3-(3-dimethylaminopropyl) carbidiimide (EDC) were mixed and injected for 420 sec to activate the CM5 chip surface. The diluted antibody was injected for 360 seconds followed by 1 M ethanolamine for 420 seconds. The flowpath was then switched to flowpath 2. A new EDC/NHS mixture was prepared and the procedure was repeated for flow cell 2. The surface was conditioned by 2 injections of 30 sec using flowpath 1, 2 at 30 μL/min of 3M MgCl₂. For the anti-mouse surface, 10 μL anti-mouse IgG (polyclonal rabbit anti-mouse IgG) from mouse antibody capture kit (GE Healthcare) was diluted to 30 μL/mL in 324 μL final immobilization buffer (10 mM sodium acetate, pH 5.0). The flow rate was set to 5 μL/min, flowpath 3. Fifty μL NHS and 50 μL EDC were mixed and injected for 420 sec to activate the chip surface. The diluted antibody was injected for 420 sec. 1 M ethanolamine was injected for 420 sec. Flow path was switched to flowpath 4. A new EDC/NHS mixture was prepared and the procedure was repeated for flow cell 4. The surface was conditioned by 2 injections of 30 sec using flowpath 3, 4 at 30 μL/min of 10 mM glycine, pH 1.7.
Binding of humanized and mouse antibodies were analyzed by surface plasmon resonance (BIAcore™) to determine their relative association rates (kₐ), dissociation rates (kd), and equilibrium binding constants (KD). Anti-mouse or anti-human antibodies were immobilized on a CM5 chip and sample mAbs were captured on the chip. 2N4R Tau was flowed over the chip and binding observed. The binding constants kₐ, kd, and KD were determined using a 1:1 Langmuir fitting model.

T1 sequence (P10636 other isoform, or with tags, fused parts or gaps limits assumed): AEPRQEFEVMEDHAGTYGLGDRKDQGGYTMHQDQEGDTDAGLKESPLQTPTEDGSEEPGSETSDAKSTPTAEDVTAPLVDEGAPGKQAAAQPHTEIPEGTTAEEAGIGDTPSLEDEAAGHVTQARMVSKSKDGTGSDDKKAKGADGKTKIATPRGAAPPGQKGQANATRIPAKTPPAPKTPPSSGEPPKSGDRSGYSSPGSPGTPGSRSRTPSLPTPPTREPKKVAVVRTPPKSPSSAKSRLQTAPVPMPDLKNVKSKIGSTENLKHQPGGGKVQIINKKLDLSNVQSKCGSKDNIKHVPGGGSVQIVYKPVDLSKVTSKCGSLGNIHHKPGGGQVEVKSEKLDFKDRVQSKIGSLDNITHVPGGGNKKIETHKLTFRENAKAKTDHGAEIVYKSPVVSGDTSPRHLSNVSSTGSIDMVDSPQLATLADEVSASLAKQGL

Binder | Kd | koff | kon
7G6-HCzu1-LCzu1 (antibody, human IgG1, kappa, V domains shown, humanized, human IgG1 kappa) VH: QVQLVQSGAEVKKPGASVKVSCKASGYTFTTYWITWVRQAPGQGLEWMGDIYPGSSICNYNEKFKSRVTMTRDTSTSTVYMELSSLRSEDTAVYYCAREDGYDAWFAYWGQGTLVTVSS VL: DVVMTQSPLSLPVTLGQPASISCRSSQSILHSNGNTYLEWFQQRPGQSPRRLIYKVSNRFSGVPDRFSGSGSGTDFTLKISRVEAEDVGVYYCFQGSHVPFTFGQGTKLEIKR | 202 pM | 0.000519 s⁻¹ | 2.57e+06 M⁻¹ s⁻¹
7G6-HCzu5-LCzu8 (antibody, human IgG1, kappa, V domains shown, humanized, human IgG1 kappa) VH: QVQLVQSGAEVKKPGASVKVSCKASGYTFTTYWITWVRQAPGQGLEWMGDIYPGSSISNYNEKFKSRVTMTVDTSTSTAYMELSSLRSEDTAVYYCAREDGYDAWFAYWGQGTLVTVSS VL: DVVMTQSPLSLPVTLGQPASISCRSSQSIVHSNGNTYLEWFQQRPGQSPRRLISKVSNRFSGVPDRFSGSGSGTDFTLKISRVEAEDVGVYYCFQGSHVPFTFGQGTKLEIKR | 82.8 pM | 0.000298 s⁻¹ | 3.6e+06 M⁻¹ s⁻¹
7G6-HCzu3-LCzu2 (antibody, human IgG1, kappa, V domains shown, humanized, human IgG1 kappa) VH: QVQLVQSGAEVKKPGASVKVSCKASGYTFTTYWITWVRQAPGQGLEWMGDIYPGSSICNYNEKFKSRVTMTVDTSTSTAYMELSSLRSEDTAVYYCAREDGYDAWFAYWGQGTLVTVSS VL: DVVMTQSPLSLPVTLGQPASISCRSSQSILHSNGNTYLEWYQQRPGQSPRLLICKVSNRFSGVPDRFSGSGSGTDFTLKISRVEAEDVGVYYCFQGSHVPFTFGQGTKLEIKR | 121 pM | 0.000242 s⁻¹ | 2e+06 M⁻¹ s⁻¹
7G6-HCzu3-LCzu1 (antibody, human IgG1, kappa, V domains shown, humanized, human IgG1 kappa) VH: QVQLVQSGAEVKKPGASVKVSCKASGYTFTTYWITWVRQAPGQGLEWMGDIYPGSSICNYNEKFKSRVTMTVDTSTSTAYMELSSLRSEDTAVYYCAREDGYDAWFAYWGQGTLVTVSS VL: DVVMTQSPLSLPVTLGQPASISCRSSQSILHSNGNTYLEWFQQRPGQSPRRLIYKVSNRFSGVPDRFSGSGSGTDFTLKISRVEAEDVGVYYCFQGSHVPFTFGQGTKLEIKR | 309 pM | 0.000856 s⁻¹ | 2.77e+06 M⁻¹ s⁻¹
7G6-HCzu5-LCzu7 (antibody, human IgG1, kappa, V domains shown, humanized, human IgG1 kappa) VH: QVQLVQSGAEVKKPGASVKVSCKASGYTFTTYWITWVRQAPGQGLEWMGDIYPGSSISNYNEKFKSRVTMTVDTSTSTAYMELSSLRSEDTAVYYCAREDGYDAWFAYWGQGTLVTVSS VL: DVVMTQSPLSLPVTLGQPASISCRSSQSILHSNGNTYLEWFQQRPGQSPRRLISKVSNRFSGVPDRFSGSGSGTDFTLKISRVEAEDVGVYYCFQGSHVPFTFGQGTKLEIKR | 96.8 pM | 0.000304 s⁻¹ | 3.14e+06 M⁻¹ s⁻¹
7G6-HCzu5-LCzu22 (antibody, human IgG1, kappa, V domains shown, humanized, human IgG1 kappa; also called 7G6-LCzu22) VH: QVQLVQSGAEVKKPGASVKVSCKASGYTFTTYWITWVRQAPGQGLEWMGDIYPGSSISNYNEKFKSRVTMTVDTSTSTAYMELSSLRSEDTAVYYCAREDGYDAWFAYWGQGTLVTVSS VL: DVVMTQSPLSLPVTLGQPASISCRSSQSILHSNGNTYLEWYQQRPGQSPRRLISKVSNRFSGVPDRFSGSGSGTDFTLKISRVEAEDVGVYYCFQGSHVPFTFGQGTKLEIKR | 1480 pM | 0.00277 s⁻¹ | 1.88e+06 M⁻¹ s⁻¹
7G6-HCzu5-LCzu21 (antibody, human IgG1, kappa, V domains shown, humanized, human IgG1 kappa) VH: QVQLVQSGAEVKKPGASVKVSCKASGYTFTTYWITWVRQAPGQGLEWMGDIYPGSSISNYNEKFKSRVTMTVDTSTSTAYMELSSLRSEDTAVYYCAREDGYDAWFAYWGQGTLVTVSS VL: DVVMTQSPLSLPVTLGQPASISCRSSQSILHSNGNTYLEWFQQRPGQSPRLLISKVSNRFSGVPDRFSGSGSGTDFTLKISRVEAEDVGVYYCFQGSHVPFTFGQGTKLEIKR | 95 pM | 0.000278 s⁻¹ | 2.93e+06 M⁻¹ s⁻¹
7G6-HCzu4-LCzu1 (antibody, human IgG1, kappa, V domains shown, humanized, human IgG1 kappa) VH: QVQLVQSGAEVKKPGASVKVSCKASGYTFTTYWITWVRQAPGQGLEWMGDIYPGSSICNYAQKFQGRVTMTVDTSTSTAYMELSSLRSEDTAVYYCAREDGYDAWFAYWGQGTLVTVSS VL: DVVMTQSPLSLPVTLGQPASISCRSSQSILHSNGNTYLEWFQQRPGQSPRRLIYKVSNRFSGVPDRFSGSGSGTDFTLKISRVEAEDVGVYYCFQGSHVPFTFGQGTKLEIKR | 237 pM | 0.000847 s⁻¹ | 3.57e+06 M⁻¹ s⁻¹
7G6-HCzu2-LCzu1 (antibody, human IgG1, kappa, V domains shown, humanized, human IgG1 kappa) VH: QVQLVQSGAEVKKPGASVKVSCKASGYTFTTYWITWVRQAPGQGLEWMGDIYPGSSICNYNEKFKSRVTMTVDTSTSTVYMELSSLRSEDTAVYYCAREDGYDAWFAYWGQGTLVTVSS VL: DVVMTQSPLSLPVTLGQPASISCRSSQSILHSNGNTYLEWFQQRPGQSPRRLIYKVSNRFSGVPDRFSGSGSGTDFTLKISRVEAEDVGVYYCFQGSHVPFTFGQGTKLEIKR | 226 pM | 0.00064 s⁻¹ | 2.83e+06 M⁻¹ s⁻¹
7G6-HCzu5-LCzu2 (antibody, human IgG1, kappa, V domains shown, humanized, human IgG1 kappa) VH: QVQLVQSGAEVKKPGASVKVSCKASGYTFTTYWITWVRQAPGQGLEWMGDIYPGSSISNYNEKFKSRVTMTVDTSTSTAYMELSSLRSEDTAVYYCAREDGYDAWFAYWGQGTLVTVSS VL: DVVMTQSPLSLPVTLGQPASISCRSSQSILHSNGNTYLEWYQQRPGQSPRLLICKVSNRFSGVPDRFSGSGSGTDFTLKISRVEAEDVGVYYCFQGSHVPFTFGQGTKLEIKR | 127 pM | 0.000237 s⁻¹ | 1.86e+06 M⁻¹ s⁻¹
7G6-HCzu3-LCzu6 (antibody, human IgG1, kappa, V domains shown, humanized, human IgG1 kappa) VH: QVQLVQSGAEVKKPGASVKVSCKASGYTFTTYWITWVRQAPGQGLEWMGDIYPGSSICNYNEKFKSRVTMTVDTSTSTAYMELSSLRSEDTAVYYCAREDGYDAWFAYWGQGTLVTVSS VL: DVVMTQSPLSLPVTLGQPASISCRSSQSILHSNGNTYLEWYQQRPGQSPRLLISKVSNRFSGVPDRFSGSGSGTDFTLKISRVEAEDVGVYYCFQGSHVPFTFGQGTKLEIKR | 120 pM | 0.000227 s⁻¹ | 1.9e+06 M⁻¹ s⁻¹
7G6-HCzu4-LCzu2 (antibody, human IgG1, kappa, V domains shown, humanized, human IgG1 kappa) VH: QVQLVQSGAEVKKPGASVKVSCKASGYTFTTYWITWVRQAPGQGLEWMGDIYPGSSICNYAQKFQGRVTMTVDTSTSTAYMELSSLRSEDTAVYYCAREDGYDAWFAYWGQGTLVTVSS VL: DVVMTQSPLSLPVTLGQPASISCRSSQSILHSNGNTYLEWYQQRPGQSPRLLICKVSNRFSGVPDRFSGSGSGTDFTLKISRVEAEDVGVYYCFQGSHVPFTFGQGTKLEIKR | 121 pM | 0.000242 s⁻¹ | 2e+06 M⁻¹ s⁻¹
7G6-HCzu5-LCzu6 (antibody, human IgG1, kappa, V domains shown, humanized, human IgG1 kappa) VH: QVQLVQSGAEVKKPGASVKVSCKASGYTFTTYWITWVRQAPGQGLEWMGDIYPGSSISNYNEKFKSRVTMTVDTSTSTAYMELSSLRSEDTAVYYCAREDGYDAWFAYWGQGTLVTVSS VL: DVVMTQSPLSLPVTLGQPASISCRSSQSILHSNGNTYLEWYQQRPGQSPRLLISKVSNRFSGVPDRFSGSGSGTDFTLKISRVEAEDVGVYYCFQGSHVPFTFGQGTKLEIKR | 96.1 pM | 0.000206 s⁻¹ | 2.14e+06 M⁻¹ s⁻¹
7G6-HCzu1-LCzu2 (antibody, human IgG1, kappa, V domains shown, humanized, human IgG1 kappa) VH: QVQLVQSGAEVKKPGASVKVSCKASGYTFTTYWITWVRQAPGQGLEWMGDIYPGSSICNYNEKFKSRVTMTRDTSTSTVYMELSSLRSEDTAVYYCAREDGYDAWFAYWGQGTLVTVSS VL: DVVMTQSPLSLPVTLGQPASISCRSSQSILHSNGNTYLEWYQQRPGQSPRLLICKVSNRFSGVPDRFSGSGSGTDFTLKISRVEAEDVGVYYCFQGSHVPFTFGQGTKLEIKR | 110 pM | 0.000241 s⁻¹ | 2.2e+06 M⁻¹ s⁻¹
7G6-HCzu6-LCzu6 (antibody, human IgG1, kappa, V domains shown, humanized, human IgG1 kappa) VH: QVQLVQSGAEVKKPGASVKVSCKASGYTFTTYWITWVRQAPGQGLEWMGDIYPGSSISNYNEKFKSRVTMTVDTSTSTVYMELSSLRSEDTAVYYCAREDGYDAWFAYWGQGTLVTVSS VL: DVVMTQSPLSLPVTLGQPASISCRSSQSILHSNGNTYLEWYQQRPGQSPRLLISKVSNRFSGVPDRFSGSGSGTDFTLKISRVEAEDVGVYYCFQGSHVPFTFGQGTKLEIKR | 96.1 pM | 0.000213 s⁻¹ | 2.21e+06 M⁻¹ s⁻¹
7G6-HCzu5-LCzu10 (antibody, human IgG1, kappa, V domains shown, humanized, human IgG1 kappa) VH: QVQLVQSGAEVKKPGASVKVSCKASGYTFTTYWITWVRQAPGQGLEWMGDIYPGSSISNYNEKFKSRVTMTVDTSTSTAYMELSSLRSEDTAVYYCAREDGYDAWFAYWGQGTLVTVSS VL: DVVMTQSPLSLPVTLGQPASISCRSSQSIVHSNGNTYLEWFQQRPGQSPRRLIYKVSNRFSGVPDRFSGSGSGTDFTLKISRVEAEDVGVYYCFQGSHVPFTFGQGTKLEIKR | 162 pM | 0.00053 s⁻¹ | 3.27e+06 M⁻¹ s⁻¹
7G6-HCzu2-LCzu2 (antibody, human IgG1, kappa, V domains shown, humanized, human IgG1 kappa) VH: QVQLVQSGAEVKKPGASVKVSCKASGYTFTTYWITWVRQAPGQGLEWMGDIYPGSSICNYNEKFKSRVTMTVDTSTSTVYMELSSLRSEDTAVYYCAREDGYDAWFAYWGQGTLVTVSS VL: DVVMTQSPLSLPVTLGQPASISCRSSQSILHSNGNTYLEWYQQRPGQSPRLLICKVSNRFSGVPDRFSGSGSGTDFTLKISRVEAEDVGVYYCFQGSHVPFTFGQGTKLEIKR | 101 pM | 0.000214 s⁻¹ | 2.12e+06 M⁻¹ s⁻¹
